Assay results as given in PMC11568203.
Values joined by “and” are separate entries in the source; they are usually repeats but may differ in a detail not shown here. Identical values can stand only once.

Tests used:
KLHDC10(41-C)-EloB/C = KLHDC10(41-C)-EloB/C (UniProt Q6PID8); assay: SPR; Biacore T200; 10xHis-KLHDC10-EloB/C captured on a Ni-NTA chip; UB variants as analytes, 2 uM to 0.125 uM; 25 mM Tris, 200 mM NaCl, 0.1% Tween20, pH 7.4, 20 °C; multi-cycle kinetics, 1:1 binding model; two replicates
[1] = biological target: KLHDC10^41-C-EloB/C with a 10X Histidine tag on EloC (SPR) (UniProt Q6PID8); assay: SPR; Biacore T200; His-tagged KLHDC10 complex captured on Ni-NTA chip (about 300 RU); ubiquitin variants as analytes 2 uM to 0.125 uM, multi-cycle kinetics; 25 mM Tris, 200 mM NaCl, 0.1% Tween20, pH 7.4; 20 °C; 1:1 binding model

- Kd (KLHDC10(41-C)-EloB/C): 319 nM and 393 nM
- Kd [1]: 300 nM
Substance: ubiquitin (from UniProt P0CG48 1-76) (natural protein)
